Values belong to the substance of their own block, whether it stands above or below them.
Columns and labels:
Gephyrin P1 wt [1] = assay: SEC
Gephyrin Δ199-233 [2] = assay: SEC
[3] = biological target: LSβ, fusion protein of lumazine synthase and GlyR β-subunit ICD (pentameric GlyR model); assay: co-sedimentation
Gephyrin P1 wt [4] = assay: ITC
Gephyrin Δ199-233 [5] = assay: ITC

- stoichiometry N (Gephyrin P1 wt [1]): 3
Substance: Gephyrin P1 wt (natural protein)

- stoichiometry N (Gephyrin Δ199-233 [2]): 3
- gephyrin in the pelleted fraction, fold of wt [3]: 2 fold
Substance: Gephyrin Δ199-233 (natural protein)

- KD high-affinity site (Gephyrin P1 wt [4]): 0.063 µM
- KD low-affinity site (Gephyrin P1 wt [4]): 1.83 µM
- KD high-affinity site (Gephyrin Δ199-233 [5]): 0.05 µM
- KD low-affinity site (Gephyrin Δ199-233 [5]): 1.54 µM
Substance: GlyR β-subunit ICD peptide (domain or fragment)

From doi:10.1101/2025.08.26.672322
